The text below walks through data of publication PMC12638309.

Experiment [1] addresses T1, Mam2, fungal peptide-sensing GPCR (P-factor) (UniProt Q00619).
T1 sequence: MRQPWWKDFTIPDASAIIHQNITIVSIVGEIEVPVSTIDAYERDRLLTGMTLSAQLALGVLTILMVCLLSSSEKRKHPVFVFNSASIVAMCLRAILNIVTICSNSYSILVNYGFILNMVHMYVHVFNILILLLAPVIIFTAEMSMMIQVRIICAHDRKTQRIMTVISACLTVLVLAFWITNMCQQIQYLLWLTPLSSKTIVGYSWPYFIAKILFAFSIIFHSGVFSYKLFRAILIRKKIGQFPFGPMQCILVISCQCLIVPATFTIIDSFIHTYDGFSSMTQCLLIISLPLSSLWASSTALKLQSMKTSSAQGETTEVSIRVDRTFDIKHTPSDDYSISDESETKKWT

The target in experiment [2] is T2, Ste2, native ɑ-factor pheromone-sensing mating GPCR (S. cerevisiae) (UniProt D6VTK4).
T2 sequence: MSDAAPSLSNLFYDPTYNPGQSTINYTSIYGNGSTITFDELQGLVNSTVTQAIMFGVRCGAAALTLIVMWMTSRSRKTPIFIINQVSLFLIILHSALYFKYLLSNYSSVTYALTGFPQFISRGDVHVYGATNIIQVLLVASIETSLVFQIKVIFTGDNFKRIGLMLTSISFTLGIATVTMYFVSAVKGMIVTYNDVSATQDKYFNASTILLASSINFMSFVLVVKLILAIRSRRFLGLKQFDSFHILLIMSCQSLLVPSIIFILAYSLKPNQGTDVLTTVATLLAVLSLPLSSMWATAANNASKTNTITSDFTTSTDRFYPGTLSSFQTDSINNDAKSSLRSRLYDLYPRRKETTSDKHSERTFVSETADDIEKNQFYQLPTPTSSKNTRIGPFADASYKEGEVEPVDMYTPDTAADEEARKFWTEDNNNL

The target of experiment [3] is T2, Ste2, native ɑ-factor pheromone-sensing mating GPCR (S. cerevisiae). This is another data set of the same source.

In turn, TYADFLRAYQSWNTFVNPDRPNL [P-factor] had a fold change of surface-displayed CD19 (P FUS1-CD19 output of the pheromone response pathway, flow cytometry) in yeast expressing Mam2 (DIX60), 0, 1 and 10 µM P-factor, 20 h, pH 5 in experiment [1] of 249 fold.

For the molecule WHWLQLKPGQPMY [ɑ-factor], in experiment [2], the fold up-regulation of surface-displayed CD19 from P FIG1 in Ste2 yeast, 0-100 µM ɑ-factor, 20 h was found to be 630 fold; the fold up-regulation of surface-displayed CD19 from P FUS1 in Ste2 yeast, 0-100 µM ɑ-factor, 20 h is 774 fold; the fold up-regulation of surface-displayed CD19 from P MFA2 in Ste2 yeast, 0-100 µM ɑ-factor, 20 h amounted to 323 fold; the fold up-regulation of surface-displayed CD19 from P TDH3 (pheromone response pathway boost) in Ste2 yeast, 0-100 µM ɑ-factor, 20 h came out at 3.1 fold. In addition, in experiment [3], the fold change of surface-displayed CD19 (P FUS1-CD19 output of the pheromone response pathway, flow cytometry) in yeast expressing Ste2 (DIX45), 0, 0.01 and 1 µM ɑ-factor, 20 h, pH 5 is 312 fold.
